B1: C-terminal FLAG-tagged WT ZYG11B [human] / Strep-tagged NLRP1, C-terminal fragment generated by 3C cleavage (begins at G131) [human] (parent complex)
chain 1: PEDQAGAAMEEASPYSLLDICLNFLTTHLEKFCSARQDGTLCLQEPGVFPQEVADRLLRTMAFHGLLNDGTVGIFRGNQMRLKRACIRKAKISAVAFRKAFCHHKLVELDATGVNADITITDIISGLGSNKWIQQNLQCLVLNSLTLSLEDPYERCFSRLSGLRALSITNVLFYNEDLAEVASLPRLESLDISNTSITDITALLACKDRLKSLTMHHLKCLKMTTTQILDVVRELKHLNHLDISDDKQFTSDIALRLLEQKDILPNLVSLDVSGRKHVTDKAVEAFIQQRPSMQFVGLLATDAGYSEFLTGEGHLKVSGEANETQIAEALKRYSERAFFVREALFHLFSLTHVMEKTKPEILKLVVTGMRNHPMNLPVQLAASACVFNLTKQDLAAGMPVRLLADVTHLLLKAMEHFPNHQQLQKNCLLSLCSDRILQDVPFNRFEAAKLVMQWLCNHEDQNMQRMAVAIISILAAKLSTEQTAQLGTELFIVRQLLQIVKQKTNQNSVDTTLKFTLSALWNLTDESPTTCRHFIENQGLELFMRVLESFPTESSIQQKVLGLLNNIAEVQELHSELMWKDFIDHISSLLHSVEVEVSYFAAGIIAHLISRGEQAWTLSRSQRNSLLDDLHSAILKWPTPECEMVAYRSFNPFFPLLGCFTTPGVQLWAVWAMQHVCSKNPSRYCSMLIEEGGLQHLYNIKDHEHTDPHVQQIAVAILDSLEKHIVRHGRPPPCKKQPQARLN
chain 2: GSERRVLRQLPDTSGRRWREISASLLYQALPSSPDHESPSQESPNAPTSTAVLGSWGSPPQPSLAPREQEAPGTQWPLDETSGIYYTEIREREREKSEKGRPPWAAVVGTPPQAHTSLQPHHHPWEPSVRESLCSTWPWKNEDFNQKFTQLLLLQRPHPRSQDPLVKRSWPDYVEENRGHLIEIRDLFGPGLDTQEPRIVILQGAAGIGKSTLARQVKEAWGRGQLYGDRFQHVFYFSCRELAQSKVVSLAELIGKDGTATPAPIRQILSRPERLLFILDGVDEPGWVLQEPSSELCLHWSQPQPADALLGSLLGKTILPEASFLITARTTALQNLIPSLEQARWVEVLGFSESSRKEYFYRYFTDERQAIRAFRLVKSNKELWALCLVPWVSWLACTCLMQQMKRKEKLTLTSKTTTTLCLHYLAQALQAQPLGPQLRDLCSLAAEGIWQKKTLFSPDDLRKHGLDGAIISTFLKMGILQEHPIPLSYSFIHLCFQEFFAAMSYVLEDEKGRGKHSNCIIDLEKTLEAYGIHGLFGASTTRFLLGLLSDEGEREMENIFHCRLSQGRNLMQWVPSLQLLLQPHSLESLHCLYETRNKTFLTQVMAHFEEMGMCVETDMELLVCTFCIKFSRHVKKLQLIEGRQHRSTWSPTMVVLFRWVPVTDAYWQILFSVLKVTRNLKELDLSGNSLSHSAVKSLCKTLRRPRCLLETLRLAGCGLTAEDCKDLAFGLRANQTLTELDLSFNVLTDAGAKHLCQRLRQPSCKLQRLQLVSCGLTSDCCQDLASVLSASPSLKELDLQQNNLDDVGVRLLCEGLRHPACKLIRLGLDQTTLSDEMRQELRALEQEKPQLLIFSRRKPSVMTPTEGLDTGEMSNSTSSLKRQRLGSERAASHVAQANLKLLDVSKIFPIAEIAEESSPEVVPVELLCVPSPASQGDLHTKPLGTDDDFWGPTGPVATEVVDKEKNLYRVHFPVAGSYRWPNTGLCFVMREAVTVEIEFCVWDQFLGEINPQHSWMVAGPLLDIKAEPGAVEAVHLPHFVALQGGHVDTSLFQMAHFKEEGMLLEKPARVELHHIVLENPSFSPLGVLLKMIHNALRFIPVTSVVLLYHRVHPEEVTFHLYLIPSDCSIRKAIDDLEMKFQFVRIHKPPPLTPLYMGCRYTVSGSGSGMLEILPKELELCYRSPGEDQLFSEFYVGHLGSGIRLQVKDKKDETLVWEALVKPGDLMPATTLIPPARIAVPSPLDAPQLLHFVDQYREQLIARVTSVEVVLDKLHGQVLSQEQYERVLAENTRPSQMRKLFSLSQSWDRKCKDGLYQALKETHPHLIMELWEKGSKKGLLPLSS

Variants of B1 are the subject of the test. The experiment in a line: coIP with western blot quantification; HEK293T cells, transfected for 48 h, with 3C protease; read off a plot.
With chain 1 F515A, the ratio to parent is about 0.85.

As for chain 1 D434K, the ratio to parent is about 0.94.

With chain 1 Y684A, the ratio to parent is about 0.51.

With chain 1 R465A, the ratio to parent is about 0.27.

As for chain 1 N566A, the ratio to parent is about 0.08.

Regarding chain 1 K514E, the ratio to parent is about 1.1.

Turning to chain 1 W521A, the ratio to parent is about 0.05.

Turning to chain 1 E569A, the ratio to parent was about 0.05.

Regarding chain 1 D525A, the ratio to parent was about 0.05.

As to chain 1 E643K, the ratio to parent was about 0.5.

These data come from publication PMC13379236 (2026).
